The target in assay [1] is FcγRIIIA (UniProt P08637). The assay is described as follows: assay not described; affinity relative to wild type Medi2.
Assay [2] concerns the target FcγRIIIA (UniProt P08637). The assay is described as follows: assay not described; affinity relative to wild type Medi3.

Sequence of UniProt P08637 (P08637 17-208 limits assumed): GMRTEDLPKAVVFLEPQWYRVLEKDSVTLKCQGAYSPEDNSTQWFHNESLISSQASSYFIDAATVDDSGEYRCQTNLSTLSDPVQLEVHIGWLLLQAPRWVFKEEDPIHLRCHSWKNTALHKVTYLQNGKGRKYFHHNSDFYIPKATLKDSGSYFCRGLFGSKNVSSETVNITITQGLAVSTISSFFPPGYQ

“Medi2-V3 ("V3" Fc variant of anti-Integrin αVβ3 antibody Medi2, aspartate 239, leucine 330, glutamate 332)” returned a fold higher binding affinity than Medi2 with FcγRIIIA [1] of 78 fold.
On to “Medi3-V1 (Fc variant of anti-EphA2 antibody Medi3, glutamate at residue 332)”, for which the fold higher binding affinity than Medi3 in the assay with FcγRIIIA [2] was 8.8 fold.

These data come from patent US20080071063A1.
